Experimental findings from the nanobody polyreactivity screen of Harvey et al. (2022) are described below.

The data set is described as follows: yeast display, Sf9 membrane polyspecificity reagent, FACS + sequencing; frameworks hold sequencing errors. Summed up: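 Sorting gates, low and high (top ~1%), were placed on anti-HA fluorescence to track expression and on streptavidin fluorescence to track reagent binding. A clone's polyreactivity label is taken from the gate it came out of. The reagent was 10% biotinylated, detergent-solubilized Sf9 membrane, applied for 1 hour at 4 °C to galactose-induced yeast display cells.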
For “QVQLVESGGGLVQAGGSLRLSCAASGFIWSYVMGWYRQAPGKERQLVAAISRSGGRTYYADSVKGRFTISRDNEKNTVYLQMNSLKPEDTAVYYCAKDGGWSRLHYNYWGQGTQVTVSS”, the “polyreactivity (PSR sort gate)” value is on record as “high polyreactivity”. Consider “QVQLVESGGGLVQAGGSLRLSCAASGFIYDYAMGWYRQAPGKEREFVARINWSGGSTYYADSVKGRFTISRDNAKNTVYLQMNSLKPEDTAVYYCATSGWAWRSSNPYEYWGQGTQVTVSS”, for which the “polyreactivity (PSR sort gate)” value was “low polyreactivity”. With “QVQLVESGGGLVQAGGSLRLSCAASGFIYRYNVMGWYRHAPGKEMEMVAAISTSGGRTYYADSVKGRFTISRDNAKNTVYLQMNSLKPEDSAVYYCNAVKSEVQKVGDGYYWGLGTQVTVSS”, the “polyreactivity (PSR sort gate)” value was “high polyreactivity”.

Regarding “QVQLVESGGGLVQAGGSLRLSCAASGFIYTSYTMGWYRQAPGKERELVAAISYRGGRTYYADSVNGRFTISRDNAKNTVYLQMNSLKPEVTAVYYCAADRVNREFDYWGQGTQVTVSS”, the “polyreactivity (PSR sort gate)” value is “high polyreactivity”. As for “QVQLVESGGGLVQAGGSLRLSCAASGFIYVYNAMGWYRKAPGKEREFVAGISRSGGNTYYADSVKGRFTISRDNAKNTVYLQMNSLKPEDTAVYYCAVVNRRFGFPNVALRSNYGDYWGQGTQVTVSS”, the entry is “low polyreactivity”; as for “QVQLVESGGGLVQAGGSLRLSCAASGFIYYYNAMGWYSQAPGKERELVAAISSRGTSTYYADSVKGRFTISRENAKNTVYLQMNSLKPEDTAVYYCNALGNFGMDYWGQGNQVTVSS”, “high polyreactivity”. Regarding “QVQLVESGGGLVQAGGSLRLSCAASGFNFAIYAMGWYRQAPGKERELVAAINSDGSTYYADSLKGLFTISRDNAKNSDYLQINSLKPEDTAVYYCNAETAGHDMDYWGQGTQVTVSS”, the “polyreactivity (PSR sort gate)” value is reported as “low polyreactivity”. As for “QVQLVESGGGLVQAGGSLRLSCAASGFNFERYAMGWYRQAPGKERELVAAISSRGGGTYYADSVKGRFTISRDNAKNTVYLQMNSLKPEDTAVYYCNRPYDYSYNYWGQGTQVTVSS”, the entry is “high polyreactivity”; as for “QVQLVESGGGLVQAGGSLRLSCAASGFNFLGNAMGWYRQAPGKERELVAAISSGGSTYADSVKGRFTISRDNAKNTVYLQMISLKPEDTAVYYCAVDRAFRAQNYHEYEYWGQGTQVTVSS”, “low polyreactivity”; as for “QVQLVESGGGLVQAGGSLRLSCAASGFNFPRYVMGWYRQAPGKERELVAAINSDISTNYADSVKGRFTISRDNANNSVYLQMTSLKPEDTAVFYCADERWDDPWEFDSWGQCTQVTVSS”, “low polyreactivity”. Consider “QVQLVESGGGLVQAGGSLRLSCAASGFNFPYYAMGWYRQAPGKERELVAAISSSGGSTYYADSVKGRFTISRDNAKNTVYLHMNSLKPEDTAVYYCAADAYSGYSDYYWGQGTQVTVSS”, for which the “polyreactivity (PSR sort gate)” value was “low polyreactivity”.

Regarding “QVQLVESGGGLVQAGGSLRLSCAASGFNFRFYAMGWYRQAPGKERELVAVITWSGGRTYYADSVKGRFTISRDNAKNTVYLQMNSLKPEDTAVYYCAAKRGKTYQRFDYWGQGTQVTVSS”, the “polyreactivity (PSR sort gate)” value is recorded as “high polyreactivity”.

Regarding “QVQLVESGGGLVQAGGSLRLSCAASGFNFRVNAMGWYRQAPGKERELVAAITKSGGSTYYADSVKGRFTISRDNAKNTVYLQMNSLKPEDTAVYYCNVVWQYSTYVRYNYWGQGTQVTVSS”, the “polyreactivity (PSR sort gate)” value is reported as “low polyreactivity”. The entry for “QVQLVESGGGLVQAGGSLRLSCAASGFNFSDYDMGWYRQAPGKERELVAAITYSGCSTYYADSVKGRFTISRDNAKKTVYLQMNSLKPEDTAVYYCAAVKSRYAEAVDYYYWGQGTQVTVSS” is “low polyreactivity”; for “QVQLVESGGGLVQAGGSLRLSCAASGFNIGRNAMGWYRQAPGKERELVAGISISGGSTYYADSVKGRFTISRDNAKNTVYLQMNSLKPEDTAVYYCAAEYAYSLDPEEDYWGQGTQVTVSS” it is “high polyreactivity”. As for “QVQLVESGGGLVQAGGSLRLSCAASGFNIIPYDMGWYRQAPGKEMDLVATISRGGSTNYADSVKGRFTISRDNAKNTVYLQMNSLKPEDTAVYYCAAEYKVVFSQPYGEYDYWGQGTQVTVSS”, the entry is “low polyreactivity”; as for “QVQLVESGGGLVQAGGSLRLSCAASGFNITYVMGWYRQAPGKERELVAVITNGGSTYYADSVKGRFTISRDNAMNTVYLLMNSLKPEDTAVYYCAARARFRYDSYYYWGQGTQLTVSS”, “high polyreactivity”; as for “QVQLVESGGGLVQAGGSLRLSCAASGFNIYYYTMGWYRQAPGKERELVAAISKSGGNTYYADSVKGRFTISRDNAKNTVYLQMNSLKPEDTAVYYCAASRYNTVTYYYWGQGTQVTVSS”, “high polyreactivity”. The entry for “QVQLVESGGGLVQAGGSLRLSCAASGFNYYTMGWYRQAPGKERELVAAINYSGGRTYYADSVKGRFTISRDNAKNTVYLQMNSLKPEDTAVYYCNTARSPYDHRPERSYDYWGQGTQVTVSS” is “high polyreactivity”; for “QVQLVESGGGLVQAGGSLRLSCAASGFPFAKNAMGWYRQAPGKERELVAVITSSGGSTYYADSVKGRFTISRDNAKNTVYLQMNCLKPEDTAVYYCNVAYYYRSRSTGYEYWGQGTQVTVSS” it is “high polyreactivity”; for “QVQLVESGGGLVQAGGSLRLSCAASGFPFSRYARGWSRQAPGTERELVATITARGGTTYYADSVKGRFTISRDNAKNTVYLQMNSLKPEDTAVYYCNAKAYYRPYYDYDYGGQGTQVTVSS” it is “high polyreactivity”. Consider “QVQLVESGGGLVQAGGSLRLSCAASGFSFLQYVMGWYSQAPGKERELFAAITSGGSTYYADSVKGRFTISRDNAKNTVYLQMNSLKPDDTAVYYCATDVADNTFYALYGSDYWGQCTQVTVSS”, for which the “polyreactivity (PSR sort gate)” value is “low polyreactivity”.

“QVQLVESGGGLVQAGGSLRLSCAASGFSFRYYTMGWYRPAPGKERELVARITWSGRITDYADSVKGRFTISRDNPKNTVYLQMNSLKPEDTAVSYCNAERRWAAYDYCGQGTQVTVSS”: the “polyreactivity (PSR sort gate)” value is on record as “high polyreactivity”. As for “QVQLVESGGGLVQAGGSLRLSCAASGFSFSRNAKGWYRQAPGKERELVAAISIRGGSTYYADSVKGRFTISRDNAKNTVYLQMNILKPEDTAVYYCNAYDLYRQRNGYGYWGQGTQVTVSS”, the entry is “high polyreactivity”. As for “QVQLVESGGGLVQAGGSLRLSCAASGFSFSRYAMGWYRQAPGKDRELVATITSGGGGTYYADSVKGRFTISRDNAKNTVYLQKNSLKPEDTAVYYCAKYSPYYRNGLDYWGHGTQVTVSS”, the entry is “high polyreactivity”. The entry for “QVQLVESGGGLVQAGGSLRLSCAASGFSFVYYAMGWYRQAPGKERELVATISGNGGRTYYADSVKGRFTISRDNAKNTVYLQMNSLKPEDTAVYYCAALLYIRSVGYDYWGQGTQVTVSS” is “low polyreactivity”.

Turning to “QVQLVESGGGLVQAGGSLRLSCAASGFSFYYNTMGWYRQAPWTERELVAAITRSFGSTYYADSVKGSFTIARDHAQNTVYVQMNSLKPEDTAVYFCAARAYYFPKLPADYYWGQGTQVSVSS”, the “polyreactivity (PSR sort gate)” value is “high polyreactivity”.

“QVQLVESGGGLVQAGGSLRLSCAASGFSSVRNDMGWYRQAPGKERELVAAISSGDTKDYADSVKGRFTISRDNAKNTVYLQMNSLNPEDTSVYYCAAVYYGRYYYWGQGTQVTVSS”: the “polyreactivity (PSR sort gate)” value was “low polyreactivity”.

Take “QVQLVESGGGLVQAGGSLRLSCAASGFTCKYYTMGWYRQAPGKERELVAAISKSGDITYYADSVKGRFTISRDNAKNTVYLQMNSMKPEDTAVYYCAVVPSSTYHAYDYWGQGTQVTVSS”: the “polyreactivity (PSR sort gate)” value was “high polyreactivity”. As for “QVQLVESGGGLVQAGGSLRLSCAASGFTFAAYAMGWSRQAPGKERELVAAISRSGGSTYYADSVKGRFTISRDNAKNTVYLQMNSLKPEDTAVYYCAAYGWPKYNYWGQGTQVTVSS”, the entry is “high polyreactivity”; as for “QVQLVESGGGLVQAGGSLRLSCAASGFTFAAYAMGWYRQAPGKESELVAAITSRDGTTYYADSVKGRFTISRNNAKNTVYLQMNSLKPEDTAVYYCAKDHFTWGVSEDDYWRQGTQVTVSS”, “low polyreactivity”; as for “QVQLVESGGGLVQAGGSLRLSCAASGFTFAFYAMGWYRQAPGKERELVAAISWDGVTTYYADSVKGRFTISRDHAKNTVYLQMNSQKPEDTAVYYCAADYPDYAGSFWPSGMYYWGQGTQVTVSS”, “low polyreactivity”.

Take “QVQLVESGGGLVQAGGSLRLSCAASGFTFAFYAMGWYRQAPGKERELVAAITGSGGSTYYADSVKGRFTISRDNAKNTVYLQMNSLKPEDTAVYYCAADKYLDYDYWGQGTQVTVSS”: the “polyreactivity (PSR sort gate)” value was “high polyreactivity”. The entry for “QVQLVESGGGLVQAGGSLRLSCAASGFTFAFYAMGWYRQAPGKERELVDAIRRTGSTNYADSVKGRFTISRDNAKNTVYLQMNSLKPEDNAVYYCAKTLWYDRGVGYWGQGTQVTVSS” is “high polyreactivity”; for “QVQLVESGGGLVQAGGSLRLSCAASGFTFAFYDMGWYRQAPGKERELVAGISTSDGSTYYADSVKGRFTISRDNAKNTVYLQMNSLKPEDTAVYYCAASYYTYWWGYPVITFDYWGQGTQVTVSS” it is “high polyreactivity”; for “QVQLVESGGGLVQAGGSLRLSCAASGFTFAGNAMGWYRQAPGKERELVAAISRRGGSTYYADSVKGRFTISRDNAKNTVYLQMNSLKPEDTAVYYCAAVYPYDYDYWGQGTQVTVSS” it is “high polyreactivity”.

With “QVQLVESGGGLVQAGGSLRLSCAASGFTFAGYAMGWYRQAPGKEMELVAAINYRGVRTYYADSVKGRFTISRDNSKNTVYLQMNSLIPEDTAVYYCAALPFLPGGGYVIHRFYYWGQGSQVTVSS”, the “polyreactivity (PSR sort gate)” value is listed as “high polyreactivity”. As for “QVQLVESGGGLVQAGGSLRLSCAASGFTFAGYAMGWYRQAPGKERELVAAINRGGSTYYADSVKGRFTISRDNAKNTVYLQMNSLKPEDTAVYYCAKAQRFYGGRMGYWGQGTQVTVST”, the entry is “low polyreactivity”; as for “QVQLVESGGGLVQAGGSLRLSCAASGFTFAHNAMGWYRQAPGKERELVAAISSRGGRTFYADSVKGRFTISRDNAKNTVYLQMNSLKPEDTAVYYCNRVRSFQYDYWGQGTQVTVSS”, “high polyreactivity”. The entry for “QVQLVESGGGLVQAGGSLRLSCAASGFTFAKYAMGWYRQAPGKERELVAAITNSGCRTYYEDSVKGRFTISRDNAKNTVYLQMNSPKPEDTAVYYCATEQLGGSIYDYWGQGTQVTVSS” is “high polyreactivity”. Regarding “QVQLVESGGGLVQAGGSLRLSCAASGFTFALNAMGWYRQAPGKERELVAAISSRGGSTYYADSVKGRFTISRDNAKNTVYLQMNSLKPEDTAGYYCAKDYKADSRFSPYGYWGQGTQVTVSS”, the “polyreactivity (PSR sort gate)” value was “high polyreactivity”.
